According to IntAct's records for PubMed 15358143:

Target: ppia_human PPIA (UniProt P62937)
Sequence (P62937 whole entry, looked up): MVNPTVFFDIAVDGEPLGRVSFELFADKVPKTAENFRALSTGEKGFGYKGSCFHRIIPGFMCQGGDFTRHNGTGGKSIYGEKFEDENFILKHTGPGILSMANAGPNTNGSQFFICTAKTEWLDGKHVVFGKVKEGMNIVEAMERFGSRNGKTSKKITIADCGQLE

Row | Substance | effect of a mutation on the interaction
1 | Nucleoprotein (Human SARS coronavirus), P59595 I305A | decreasing interaction strength
2 | Nucleoprotein (Human SARS coronavirus), P59595 Q307A | decreasing interaction strength
3 | Nucleoprotein (Human SARS coronavirus), P59595 Q307D | decreasing interaction strength
4 | Nucleoprotein (Human SARS coronavirus), P59595 W302A | decreasing interaction strength
